Reference: article PMC11697113, “The Hsc70 system maintains the synaptic SNARE protein SNAP-25 in an assembly-competent state and delays its aggregation [drawing 1]” (The Journal of Biological Chemistry, 2024)

B1: CSPαJ: J-domain (residues 1–100) of human CSPα (protein, UniProt Q9H3Z4 1-100, looked up, fragment)
chain: MADQRQRSLSTSGESLYHVLGLDKNATSDDIKKSYRKLALKYHPDKNPDNPEAADKFKEINNAHAILTDATKRNIYDKYGSLGLYVAEQFGEENVNTYFV
modifications: J-domain
notes: J-domain (residues 1–100) of human CSPα
B2: Apg2: nucleotide exchange factor, member of the Hsp110 family (protein, UniProt P34932 1-840, looked up)
Heat shock 70 kDa protein 4: MSVVGIDLGFQSCYVAVARAGGIETIANEYSDRCTPACISFGPKNRSIGAAAKSQVISNAKNTVQGFKRFHGRAFSDPFVEAEKSNLAYDIVQLPTGLTGIKVTYMEEERNFTTEQVTAMLLSKLKETAESVLKKPVVDCVVSVPCFYTDAERRSVMDATQIAGLNCLRLMNETTAVALAYGIYKQDLPALEEKPRNVVFVDMGHSAYQVSVCAFNRGKLKVLATAFDTTLGGRKFDEVLVNHFCEEFGKKYKLDIKSKIRALLRLSQECEKLKKLMSANASDLPLSIECFMNDVDVSGTMNRGKFLEMCNDLLARVEPPLRSVLEQTKLKKEDIYAVEIVGGATRIPAVKEKISKFFGKELSTTLNADEAVTRGCALQCAILSPAFKVREFSITDVVPYPISLRWNSPAEEGSSDCEVFSKNHAAPFSKVLTFYRKEPFTLEAYYSSPQDLPYPDPAIAQFSVQKVTPQSDGSSSKVKVKVRVNVHGIFSVSSASLVEVHKSEENEEPMETDQNAKEEEKMQVDQEEPHVEEQQQQTPAENKAESEEMETSQAGSKDKKMDQPPQAKKAKVKTSTVDLPIENQLLWQIDREMLNLYIENEGKMIMQDKLEKERNDAKNAVEEYVYEMRDKLSGEYEKFVSEDDRNSFTLKLEDTENWLYEDGEDQPKQVYVDKLAELKNLGQPIKIRFQESEERPKLFEELGKQIQQYMKIISSFKNKEDQYDHLDAADMTKVEKSTNEAMEWMNNKLNLQNKQSLTMDPVVKSKEIEAKIKELTSTCSPIISKPKPKVEPPKEEQKNAEQNGPVDGQGDNPGPQAAEQGTDTAVPSDSDKKLPEMDID

How the values were obtained:
[1] = SNAP-25 aggregation kinetics by optical density; type: biochemical; conditions: without SNAP-25, 37 °C
Experimental: (§1) To test our hypothesis that Hsc70 inhibits SNAP-25 aggregation, we monitored the aggregation kinetics of recombinantly expressed SNAP-25 in the absence and presence of Hsc70 by following optical density at 360 nm (Fig. 2). […] This lag time was elongated to ∼65 h in the presence of Hsc70. In neurons, Hsc70 works in collaboration with its co-chaperone CSPα. […] (Fig. S2A). Apg2 is a member of the Hsp110 family, which is known to suppress protein aggregation ([36]). […] (Fig. S2B).
(§2) Figure 2 Hsc70 delays the aggregation of SNAP-25. Aggregation kinetics of SNAP-25 (50 μM) at 37 °C. Optical density of SNAP-25 was recorded at 360 nm in the absence (black) and in the presence of Hsc70 (5 μM, red), and Hsc70+CSPαJ (5 μM each, blue).
(§3) Aggregation of SNAP-25 at 50 μM was followed by measuring the A360 in a 96-well plate using a BioTek plate reader (BioTek), at 37 °C with shaking at 300 rpm, in the absence and presence of Hsc70 and CSPαJ at 5 μM each, and Apg2 at 0.5 μM. The aggregation buffer included 20 mM phosphate buffer pH 7.4, 100 μM MgCl2, and 100 mM KCl, and an ATP-experiment was carried out using regeneration system (5 mM 2-phosphoenolpyruvate, 0.05 mg/ml pyruvate kinase, and 5 mM ATP), as described previously ([51]).
(§4) Figure SI 2. Apg2 enhances the effect of Hsc70 on SNAP-25. (A) Aggregation kinetics of SNAP-25 (50 μM) at 37 °C. OD600 of SNAP-25 was recorded in the absence (black) and in the presence of Hsc70, Hsc70+CSPa-J (blue) and Hsc70+CSPa-J+Apg2 (turquoise). […]
(§5) concentrations are SNAP-25 (50 μM), Hsc70 (5 μM), CSPa-J (5 μM) and Apg2 (0.5 μM).
(§6) (B) Aggregation kinetics of SNAP-25 (50 μM) at 37 °C. OD600 of SNAP-25 was recorded in the absence (black) and in the presence of Apg2 (blue). […]

SNAP-25 = SNAP-25 aggregation kinetics by optical density; type: biochemical; conditions: SNAP-25 50 μM
Experimental: as §1, §2, §3, §4, §5, §6

Hsc70 [2] = molecular target: T1, Hsc70 (Homo sapiens, UniProt P11142); assay: SNAP-25 cellulose-bound peptide array probed with Hsc70; type: binding; conditions: Hsc70 with CSPαJ vs Hsc70 alone
T1 construct: 6X His-tag (TEV-cleavable) (cleaved yes); made in house; host or cells: E. coli Rosetta (DE3)
T1 sequence (P11142 whole entry): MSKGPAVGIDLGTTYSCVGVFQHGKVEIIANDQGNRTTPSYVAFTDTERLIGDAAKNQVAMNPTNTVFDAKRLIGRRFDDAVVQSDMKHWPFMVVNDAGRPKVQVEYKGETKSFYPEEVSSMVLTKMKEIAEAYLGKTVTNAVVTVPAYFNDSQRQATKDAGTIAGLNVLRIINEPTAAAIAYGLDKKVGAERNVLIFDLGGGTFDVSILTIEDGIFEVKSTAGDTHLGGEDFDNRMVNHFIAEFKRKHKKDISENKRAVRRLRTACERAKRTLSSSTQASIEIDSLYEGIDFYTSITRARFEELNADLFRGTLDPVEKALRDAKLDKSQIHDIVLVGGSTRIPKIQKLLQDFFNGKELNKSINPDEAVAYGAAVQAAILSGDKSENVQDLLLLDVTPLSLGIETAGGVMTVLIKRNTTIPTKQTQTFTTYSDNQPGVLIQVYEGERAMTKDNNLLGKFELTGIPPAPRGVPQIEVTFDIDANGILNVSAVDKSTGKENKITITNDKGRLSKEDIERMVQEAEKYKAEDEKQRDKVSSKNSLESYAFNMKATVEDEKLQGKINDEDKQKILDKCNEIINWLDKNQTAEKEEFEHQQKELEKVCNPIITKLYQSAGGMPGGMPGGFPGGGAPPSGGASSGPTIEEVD
Source text: To explore in greater depth the binding sites for Hsc70 in SNAP-25, we screened a cellulose-bound peptide array spanning the full SNAP-25 sequence with 13-residue long peptides, overlapping by ten residues, and probed with Hsc70 in the presence of a two-fold excess of ATP and ten-fold excess of ADP. The binding of Hsc70 to sites in the array was then visualized with an anti-Hsc70 primary antibody and a horse radish peroxidase-tagged secondary antibody to enable visualization by chemiluminescence (Fig. 4A). To quantitatively analyze the array, we used ImageJ (https://imagej.net/ij/) and plotted the intensity under the area for each spot. […] One site is located in the SNN, one in the LOOP, and one in the LOOP-SNC region (called SNC site) (Fig. 4A) […] (Fig. 1C). […] The binding site in the LOOP region is very close to the cysteine residues that become palmitoylated as SNAP-25 moves to its membrane-localized state. It is formally possible that Hsc70 binds to SNAP-25 in the initial un-palmitoylated state and dissociates upon palmitoylation and association with the plasma membrane. […]
B, quantification of the spots from Figure 4A using ImageJ (Hsc70 (gray) and Hsc70-CSPαJ (dark gray)). […]
A peptide array of SNAP-25 was obtained from CEM corporation. […] The chemiluminescence was captured in a G-box (Syngene), and the images were analyzed using ImageJ.

Hsc70 [3] = molecular target: T1, Hsc70; assay: ATPase activity of Hsc70 (malachite green); type: biochemical; conditions: for ATPase activity of co-chaperone alone: baseline, protein alone without Hsc70
Source text: Hsp70s consist of an nucleotide-binding domain (NBD) and a substrate-binding domain (SBD). Hsc70 works using an allosteric mechanism whereby substrate binding at the SBD stimulates the ATP hydrolysis rate at the nucleotide-binding domain. The basal ATPase rate of Hsp70 is low, usually about 0.05 ± 0.009 mol Pi/mol protein, and increases when it is stimulated by binding of a peptide to the canonical site in the SBD. We measured the ability of SNAP-25 peptides SNNP and SNCP to stimulate the ATPase rate of Hsc70 (Fig. 5A). SNNP and SNCP binding cause a 1.5-fold increase of the Hsc70 ATPase rate over basal (observed rates upon addition of SNNP and SNCP were 0.089 ± 0.008 and 0.080 ± 0.005, respectively). In order to confirm that peptides are indeed binding at the canonical binding site of Hsc70, we used the V438F mutant that blocks the binding site ([37]). […] The addition of CSPαJ stimulates the ATPase activity of Hsc70 ∼4-fold with and without peptides.
Figure 5 SNN and SNC peptides interact with the canonical substrate-binding site of Hsc70.A, ATPase activity of Hsc70 (2 μM) in the absence (gray) and presence of 200 μM SNNP (orange) and SNCP (green) peptides. Error bars represent the SDs from three independent experiments. B, binding of SNAP-25 (black), SNNP (orange), LoopP (blue), and SNCP (green) peptides to Hsc70 followed by competition for FITC-p5 peptide using fluorescence anisotropy. Increasing concentrations of the competitors were added to a complex of Hsc70 (5 μM) and FITC-p5 peptide (50 nM). Error bars represent SDs from three independent experiments. C, structure of the canonical substrate-binding site of human HspA1 (PDB 4po2) illustrating the location of Hsc70 residues Ile 403 and Ile 440 in red and green spheres, respectively (N.B., Hsc70 and HspA1 share […] sequence identity). The SBD is shown in gray, bound substrate in cyan sticks, and the side chain of the residue occupying the 0th position in the chaperone (“anchor residue”) in orange ball and sticks. For better visualization of the substrate-binding site, residues 512 to 613, 405 to 408, and 431 were removed in this illustration of the structure. […]
We performed ATPase assays to observe the activity of Hsc70 in the presence of SNAP25 peptides. […] Absorbance readings were taken at 620 nm using a BioTek plate reader. […]
(C) ATPase activity of Hsc70 (at 2 μM) in the absence (grey) and presence of 200 μM SNNP (orange) and L(Loop)-SNCP (green) peptides, and in the absence and presence of CSPa-J and CSPa-J/Apg2. The statistical significance was calculated using one-way ANOVA test with Sidak’s multiple comparison and the Hsc70 ATPase activity […]

[4] = OD600 (Fig. S2A), Hsc70 5 μM, CSPa-J 5 μM, Apg2 0.5 μM

Molecule	aggregation of the chaperone alone ([1]; OD 360 nm (Fig. 2))	aggregation of the chaperone alone [1, 4]	effect of CSPαJ on lag time of SNAP-25 aggregation with Hsc70 (SNAP-25; Hsc70 and CSPαJ 5 μM each, 37 °C, OD 360 nm)	effect of CSPαJ on specificity of Hsc70 binding to SNAP-25 array (Hsc70 [2])	stimulation of Hsc70 ATPase activity by CSPαJ (Hsc70 [3]; Hsc70 2 μM, with and without peptides) [fold]	ATPase activity of co-chaperone alone (Hsc70 [3])	effect of Apg2 alone on SNAP-25 aggregation (SNAP-25; Apg2 without Hsc70/CSPαJ, 37 °C (Fig. S2B))	effect of Apg2 on SNAP-25 aggregation kinetics with Hsc70-CSPαJ (SNAP-25; Hsc70 5 μM, CSPαJ 5 μM, Apg2 0.5 μM, 37 °C (Fig. S2A))	effect of Apg2 on Hsc70 ATPase activity (Hsc70 [3]; Hsc70 2 μM with CSPαJ, with Apg2 (Fig. S2C))
B1	no aggregation	exhibit no aggregation	elongates the lag time of SNAP-25 aggregation	does not change the specificity of Hsc70 binding to SNAP-25	~4	no ATPase activity	–	–	–
B2	–	exhibit no aggregation	–	–	–	no ATPase activity	no significant effect	further elongated	not further increased
